Reference: US20250032605A1

Key:
[1] = target: SARS-2^hg (row Trimer)
[2] = target: SARS-2 RBD (wild-type SARS-CoV-2 receptor binding domain, monomer) (SARS-CoV-2) (UniProt P0DTC2); assay: BLI, Fab on FAB2G sensor, RBD as analyte, apparent KD
[3] = target: SARS-1 RBD (SARS-CoV receptor binding domain, monomer) (SARS-CoV (SARS-1)) (UniProt P59594); assay: as above
[4] = target: WIV1 RBD (WIV1-CoV receptor binding domain, monomer) (WIV1-CoV); assay: as above

Row | Substance | Kd [1] [µM] | Kd [2] [µM] | Kd [3] [µM] | Kd [4] [µM]
1 | B38 Fab | 3.2 | 0.97 |  | 
2 | CR3022 Fab |  |  | 0.027 | 0.037
